This is an account of results in paper PMC2965767, “Identification and Genome-Wide Prediction of DNA Binding Specificities for the ApiAP2 Family of Regulators from the Malaria Parasite”.

The target in this series is PF11_0091 D1 (PF3D7_1107800, AP2 domain transcription factor, putative) (Plasmodium falciparum, UniProt Q8IIS4 1486-1548). As to the kind of experiment: EMSA; 5 mM MgCl2 with 10 mM EDTA; LightShift buffer, 2.5% glycerol, 50 mM KCl, 0.05% NP-40, 50 ng/uL poly(dI-dC); room temperature, 20 min. The note with it: tags: N-terminal GST (pGEX-4T1), kept; label: 5' biotin.

B1: gbp130 (dsDNA)
DNA 1: AAGCAAATAAGATATTCCAAAAAAAAGTATTCTAATGTGTACTAATAAACCTTTATATAA
DNA 2: TTATATAAAGGTTTATTAGTACACATTAGAATACTTTTTTTTGGAATATCTTATTTGCTT
Consider B1, for which the binding result is listed as “binds”.
